Test results: the supplement of paper PMC12764529
± gives the half width of the 95% confidence interval.

What was measured:
[1] = folding stability dG unfold from trypsin proteolysis; higher = more stable
Experimental: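 Folding stability of de novo designed mini-proteins (<80 aa, no Cys; designed by TrROS, TrMRF, ProteinMPNN and the joint model) was measured by cDNA display proteolysis with trypsin and chymotrypsin. Each protease was used at 11 concentrations in a threefold dilution series plus a no-protease condition. K50 was inferred by Bayesian fitting of sequencing counts, and dG unfold was derived against a sequence-predicted unfolded-state K50 (Tsuboyama et al. method). Sequences shown include variable-length N-terminal GS-type padding (SAGGSAGG...) inside a display construct carrying a PA tag. Rows were kept only if the AF2 dimer inter-PAE was >15, to exclude likely homo-oligomers.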

[2] = folding stability dG unfold (combined trypsin and chymotrypsin); higher = more stable
Summary of the method: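 Unfolding free energy was derived, per protease or combined, against a sequence-predicted unfolded-state K50 and a shared folded-state K50, starting from K50 inferred by Bayesian fitting of sequencing counts. Digestion with trypsin and chymotrypsin was carried out on designed mini-proteins under 80 residues without cysteine in a PA-tagged cDNA display construct. Only designs with AlphaFold2 dimer inter-PAE above 15 were kept.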

Which “folding stability dG unfold” value [1] does the source give for “SAGGSAGGSAGPPTSILEVKPGGEVTIKEGGTPVTVPSSVPYINLPEGGSAGSVEVPPELSAGGSAGGSAGG [r11_647_JUSTAS]” here?
Its value is 0.394 ± 0.042 kcal/mol.

What about the “folding stability dG unfold” value [2] of the same sequence?
The value was -0.314 ± 0.31 kcal/mol.

What does the source list for “SAGGSAGGSAGTITTTTDPATGEYTVTIPIASGDGTPVGTIPVTVPKSDPSAAAAFIAATSAGGSAGGSAGG [r11_77_JUSTAS]”?
folding stability dG unfold [1]: 0.106 ± 0.11 kcal/mol; folding stability dG unfold [2]: -0.438 ± 0.29 kcal/mol

With “SAGGSAGGSAGTIVTPTATYRIEKLPDKRVRIVVGDKEYEVRVGEPFYLPGGVPFEVLDESAGGSAGGSAGG [r11_147_TrMRF]” as the sequence, how does the “folding stability dG unfold” value [1] read?
Its value is 0.35 ± 0.13 kcal/mol.

What about the “folding stability dG unfold” value [2] of the same sequence?
The value was -0.299 ± 0.19 kcal/mol.

With “SAGGSAGGSAGTVTVDPEKGVVYVPLPEPISPEEVIEKRKEPELDVKILSVGENVAVILVSAGGSAGGSAGG [r17_323_JUSTAS]” as the sequence, how does the “folding stability dG unfold” value [1] read?
Its value is 0.493 ± 0.027 kcal/mol.

What about the “folding stability dG unfold” value [2] of the same sequence?
Its value is -0.218 ± 0.11 kcal/mol.

Which “folding stability dG unfold” value [1] does the source give for “SAGGSAGGSAGVPVPGTDVPAEPITVLKKNPDGTVTKLKDESLTLEEIKAKLPGEVEFVGSAGGSAGGSAGG [r17_125_JUSTAS]” here?
Its value is 0.0884 ± 0.14 kcal/mol.

And the “folding stability dG unfold” value [2]?
The value was less than -1 kcal/mol.

What does the source list for “SAGGSAGGSAKITIPASQITHVDLETGELLVDHPSGRPIIFRVDPDRPDLILVEDPSGLSLGSAGGSAGGSA [r18_418_TrMRF]”?
folding stability dG unfold [1]: -0.703 ± 0.15 kcal/mol; folding stability dG unfold [2]: < -1 kcal/mol

With “SAGGSAGGSALVRIEFPNGREIEIPNNMPYEQAKDVAVELAEEHGKNGRPFKVKIEEIKPPGSAGGSAGGSA [r18_213_TrROS]” as the sequence, how does the “folding stability dG unfold” value [1] read?
The value was 0.439 ± 0.096 kcal/mol.

And the “folding stability dG unfold” value [2]?
The value was -0.511 ± 0.56 kcal/mol.

Which “folding stability dG unfold” value [1] does the source give for “SAGGSAGGSAMPEPVTITVRVPYEPDEAEAAAERIREEEYPDAKSITVTRDPATGTATFTVNSAGGSAGGSA [r18_390_JUSTAS]” here?
The value was -0.222 ± 0.18 kcal/mol.

What about the “folding stability dG unfold” value [2] of the same sequence?
Its value is less than -1 kcal/mol.

For “SAGGSAGGSANSSSLPPNYVTPLPITVTDSRPGSYMPLEEREARAQALAEANPGVTVTVVRESAGGSAGGSA [r18_499_JUSTAS]”, which “folding stability dG unfold” value [1] is on record?
The value was -0.373 ± 0.099 kcal/mol.

And the “folding stability dG unfold” value [2]?
The value was less than -1 kcal/mol.

What does the source list for “SAGGSAGGSATVIIMVDPDDIEEALKEAPPNSKVMIHNPDNGYMFEITPNKLEIVEPIPPGDSAGGSAGGSA [r18_246_TrROS]”?
folding stability dG unfold [1]: 0.279 ± 0.058 kcal/mol; folding stability dG unfold [2]: -0.0908 ± 0.23 kcal/mol

For “SAGGSAGGSAVEEEVERIEKAVGVPIDPGSSVTKVKEGVEPVLPYRMDIKPGVESPELLLLSAGGSAGGSAG [r3_427_JUSTAS]”, which “folding stability dG unfold” value [1] is on record?
The value was -0.908 ± 0.53 kcal/mol.

And the “folding stability dG unfold” value [2]?
Its value is less than -1 kcal/mol.

For “SAGGSAGGSDPVVIPVPMDDFSKETIKNFIDEAPDDNRPIQMNFPNGKPIYIQVEPDGDIKPVSAGGSAGGS [r12_1054_TrROS]”, which “folding stability dG unfold” value [1] is on record?
Its value is 0.557 ± 0.041 kcal/mol.

What about the “folding stability dG unfold” value [2] of the same sequence?
The value was less than -1 kcal/mol.

With “SAGGSAGGSDWFPIRVEDIEYERDPADGRDSVTIEAQFPGKPHTFTIPPNAPIKPGDELWIPFSAGGSAGGS [r20_49_TrROS]” as the sequence, how does the “folding stability dG unfold” value [1] read?
The value was -1.9 ± 0.8 kcal/mol.

And the “folding stability dG unfold” value [2]?
The value was less than -1 kcal/mol.

Which “folding stability dG unfold” value [1] does the source give for “SAGGSAGGSGEEIIKKIAESLIPGHPNLKPDKITYDPKTGKITIKTKNPKAAKLLKELDLIKPSAGGSAGGS [r12_623_TrMRF]” here?
The value was -0.446 ± 0.28 kcal/mol.

And the “folding stability dG unfold” value [2]?
Its value is less than -1 kcal/mol.

For “SAGGSAGGSGKWMTAKELLKEFKPGKTIMIRMPPGTEIPPNIKPKGTFPGNGWMMIKIPPNDISAGGSAGGS [r12_356_TrROS]”, which “folding stability dG unfold” value [1] is on record?
Its value is -0.2 ± 0.45 kcal/mol.

And the “folding stability dG unfold” value [2]?
Its value is -0.274 ± 0.42 kcal/mol.

For “SAGGSAGGSGMEKKTITITIPVPPDRDVTEEEIKETLKPLGYEEVDIEEIKPAGNSYTVTAVISAGGSAGGS [r20_79_JUSTAS]”, which “folding stability dG unfold” value [1] is on record?
Its value is 0.212 ± 0.13 kcal/mol.

And the “folding stability dG unfold” value [2]?
Its value is -0.427 ± 0.52 kcal/mol.

What does the source list for “SAGGSAGGSIAPDEPLVLEVEVEEVVPGVGEVLLPEWIAEEFPDAVIEVETDGTPVKVTIYRPSAGGSAGGS [r12_900_TrMRF]”?
folding stability dG unfold [1]: 0.743 ± 0.045 kcal/mol; folding stability dG unfold [2]: 0.0203 ± 0.076 kcal/mol

With “SAGGSAGGSIKVPKNSKVTVLYEKGGKKIEVSGIVDPKTGKILETDSLENLPDAKIVEIKVEDSAGGSAGGS [r12_6_TrMRF]” as the sequence, how does the “folding stability dG unfold” value [1] read?
Its value is -0.742 ± 0.15 kcal/mol.

And the “folding stability dG unfold” value [2]?
The value was less than -1 kcal/mol.

What does the source list for “SAGGSAGGSKFPKKFTVEVYTLTKKLKTPEGKLKTETTVLIEKTEEIKPLPEIDEERVEKVLLSAGGSAGGS [r12_1060_JUSTAS]”?
folding stability dG unfold [1]: 0.166 ± 0.71 kcal/mol; folding stability dG unfold [2]: < -1 kcal/mol

Which results are given for “SAGGSAGGSKIKILFDPNMTLEEAIELAEKLTKEFDAEVELEIIPKPKPKPLPVIDPENPKLLSAGGSAGGS [r12_159_TrMRF]”?
folding stability dG unfold [1]: 0.252 ± 0.028 kcal/mol; folding stability dG unfold [2]: -0.72 ± 0.3 kcal/mol

Which “folding stability dG unfold” value [1] does the source give for “SAGGSAGGSKITITIAPGMSEEEAKKLAEELAKEFNIEIEVKIEPLKPVEKKFYVDKETNEIKSAGGSAGGS [r12_159_TrROS_Hall]” here?
The value was -0.357 ± 0.19 kcal/mol.

And the “folding stability dG unfold” value [2]?
The value was less than -1 kcal/mol.

What does the source list for “SAGGSAGGSMIVVKTENGEEIEISKDALKPGMTAEELKAKLPPGVKKIEIVEVKEVEVEVEEESAGGSAGGS [r20_161_TrROS_Hall]”?
folding stability dG unfold [1]: -0.865 ± 0.4 kcal/mol; folding stability dG unfold [2]: < -1 kcal/mol

For “SAGGSAGGSMKPVLTIPASVTDPEVAIAILREAKAALPEGTQLEVVMPGGAEEELKKAGLILKSAGGSAGGS [r12_992_JUSTAS]”, which “folding stability dG unfold” value [1] is on record?
The value was -1.4 ± 0.71 kcal/mol.

And the “folding stability dG unfold” value [2]?
The value was less than -1 kcal/mol.

What does the source list for “SAGGSAGGSMKTALLDDGKTIPLPEEELPPDAGVEEVAKKIPPEAKKLTVKEPDGSTKTVPLASAGGSAGGS [r20_161_JUSTAS]”?
folding stability dG unfold [1]: -0.0521 ± 0.2 kcal/mol; folding stability dG unfold [2]: < -1 kcal/mol
